Data: patent publication US20140242093A1, “METHODS AND COMPOSITIONS FOR MODULATING THE INNATE IMMUNE RESPONSE AND/OR MYOGENESIS IN A MAMMALIAN SUBJECT” (FRED HUTCHINSON CANCER RESEARCH CENTER, priority 2011, published 2014)

Tested on: control human primary myoblasts
Assay: Expression microarray of primary myoblasts transduced with lentivirus carrying DUX4-fl, DUX4-s or GFP
Procedure: Primary human myoblasts were collected and cultured as previously described (Snider et al., 2010). Primary myoblasts were maintained at or below 70% confluency for proliferation. For differentiation, cells were allowed to reach 95-100% confluency in growth medium. Once confluency was reached, the cells were changed to differentiation medium (F10 media supplemented with 1% horse serum, 10 μg/mL insulin, and 10 μg/mL transferrin, penicillin/streptomycin) and maintained for 4 days. Human RD cells were grown in DMEM in 10% bovine calf serum (Hyclone) and penicillin/streptomycin. The primary myoblasts were transduced with lentivirus carrying DUX-fl, DUX4- or GFP (MOI=15).
Expression microarrays were performed on the transduced cells at 24 hours after transduction as follows. […] Samples were analyzed by Illumina Human Whole Genome microarrays. Probe intensities were corrected, normalized, and summarized by the Lumi package of Bioconductor (Du et al., 2008). Differentially expressed genes were identified by the LIMMA package of Bioconductor (Wettenhall and Smyth, 2004). Gene set enrichment analysis (GSEA) was performed using the Bioconductor GOstats package (Falcon and Gentleman, 2007).

B1: DUX4-s: short splice form of DUX4 (SEQ ID NO:112), keeps the double-homeobox domains, lacks the C-terminal activation domain (protein, listed as Homo sapiens)
chain: MALPTPSDSTLPAEARGRGRRRRLVWTPSQSEALRACFERNPYPGIATRERLAQAIGIPEPRVQIWFQNERSRQLRQHRRESRPWPGRRGPPEGRRKRTAVTGSQTALLLRAFEKDRFPGIAAREELARETGLPESRIQIWFQNRRARHPGQGGRAPAQV
PRAMEF19 expression fc (Refseq NM_001099790.1): −0.03732 | PRAMEF20 expression fc (Refseq NM_001099852.1): −0.003632 | PRAMEF14 expression fc (Refseq NM_001099854.1): −0.1694 | PRAMEF21 expression fc (Refseq NM_001100114.1): −0.06827 | LOC729384 expression fc (Refseq NM_001105522.1): −0.07068 | KHDC1L expression fc (Refseq NM_001126063.2): −0.07068 | CSAG3 expression fc (Refseq NM_001129826.1): 0.09074 | LOC399940 expression fc (Refseq NM_001136118.1): −0.03724 | LOC440563 expression fc (Refseq NM_001136561.1): 0.07051 | FAM90A7 expression fc (Refseq NM_001136572.1): −0.2137 | CYCSL1 expression fc (Refseq NR_001561.1): 0.3733 | MGC10997 expression fc (Refseq NR_001565.1): −0.2936 | FTHL3 expression fc (Refseq NR_002201.1, cultured human skeletal muscle): 0.4498 | FTHL11 expression fc (Refseq NR_002204.1, cultured human skeletal muscle): 0.6004 | FTHL12 expression fc (Refseq NR_002205.1, cultured human skeletal muscle): 0.3871 | RPPH1 expression fc (Refseq NR_002312.1): 0.2269 | RFPL1S expression fc (Refseq NR_002727.1): 0.1147 | SNORD56 expression fc (Refseq NR_002739.1): −0.1657 | fc of TRIM78P (expression array) (Refseq NR_002777.2): 1.698 | HNRPA1L-2 expression fc (Refseq NR_002944.2): −0.898 | RMRP expression fc (Refseq NR_003051.2): 0.07334 | fc of LOC400759 (expression array) (Refseq NR_003133.1): 1.032 | HNRPDL expression fc (Refseq NR_003249.1): 0.01689 | SDHALP1 expression fc (Refseq NR_003264.1): 0.1225 | RN5S9 expression fc (Refseq NR_023371.1): 0.7616 | KIAA0114 expression fc (Refseq NR_024031.1): −0.316 | NCRNA00092 expression fc (Refseq NR_024129.1): −0.1123 | MIR503 expression fc (Refseq NR_030228.1): −0.1361 | MIR2278 expression fc (Refseq NR_031755.1): 0.09768 | USP41 fc (Refseq XM_036729.5): 0.5246 | TRIM64 expression fc (Refseq XM_061890.11): −0.174 | LOC136157 expression fc (Refseq XM_069743.3): 0.05271 | LOC196120 expression fc (Refseq XM_114987.3): 0.05191 | LOC646066 expression fc (Refseq XM_116384.2): −0.02686 | LOC284428 expression fc (Refseq XM_208203.5): −0.09941 | LOC285697 expression fc (Refseq XM_210642.1): −0.06561 | LOC342934 expression fc (Refseq XM_292724.5): −0.06005 | LOC340096 expression fc (Refseq XM_293943.2): −0.07893 | LOC389633 expression fc (Refseq XM_372030.4): −0.0852 | LOC390031 expression fc (Refseq XM_372343.1): −0.1097 | LOC390530 fc (Refseq XM_372543.2): 0.1083 | LOC391045 expression fc (Refseq XM_372780.3): 0.3531 | LOC391092 expression fc (Refseq XM_372792.2): 0.1107 | LOC391742 expression fc (Refseq XM_373056.1): 0.1596 | LOC391747 expression fc (Refseq XM_373059.2): −0.1049 | LOC391761 expression fc (Refseq XM_373073.2): −0.05894 | LOC391764 expression fc (Refseq XM_373076.3): 0.1211 | LOC391766 expression fc (Refseq XM_373077.2): −0.05537 | LOC391767 expression fc (Refseq XM_373078.1): 0.05542 | LOC399937 expression fc (Refseq XM_374917.3): 0.0007914 | LOC399939 expression fc (Refseq XM_374919.3): −0.06731 | LOC401860 expression fc (Refseq XM_377445.3): −0.1342 | LOC402199 expression fc (Refseq XM_377875.2): 0.0817 | LOC646103 expression fc (Refseq XM_377879.3): −0.1387 | LOC402207 expression fc (Refseq XM_377884.2): −0.01834 | LOC440040 expression fc (Refseq XM_495873.4): 0.08128 | FAM90A9 expression fc (Refseq XM_496956.4): 0.01693 | FAM90A12 expression fc (Refseq XM_496961.3): 0.04824 | LOC441584 expression fc (Refseq XM_497258.1): −0.1442 | LOC441019 expression fc (Refseq XM_498969.2, cultured human skeletal muscle): 0.2625 | PEG10 expression fc (Refseq XM_499343.2): −0.09718 | LOC642362 expression fc (Refseq XM_925891.1): −0.0147 | LOC642538 expression fc (Refseq XM_926027.2): 0.1258 | LOC653111 expression fc (Refseq XM_926073.2): −0.09966 | LOC642843 expression fc (Refseq XM_926241.2): −0.05848 | LOC653192 expression fc (Refseq XM_926437.2): −0.03932 | LOC653194 expression fc (Refseq XM_926449.1): −0.01762 | LOC643731 expression fc (Refseq XM_927019.1): −0.0009314 | LOC653506 fc (Refseq XM_927769.1): 0.01748 | LOC645137 expression fc (Refseq XM_928167.2): −0.1524 | fc of LOC653583 (expression array) (Refseq XM_928224.2): 0.1005 | LOC645373 expression fc (Refseq XM_928412.1): −0.06602 | LOC645558 expression fc (Refseq XM_928577.2): −0.04868 | LOC645669 expression fc (Refseq XM_928680.1): 0.08754 | LOC653656 expression fc (Refseq XM_928688.3): −0.1419 | LOC653657 expression fc (Refseq XM_928697.2): 0.186 | LOC646698 expression fc (Refseq XM_929644.2): 0.1105 | LOC646754 expression fc (Refseq XM_929704.2): −0.1486 | LOC646914 expression fc (Refseq XM_929877.1): −0.02473 | fc of LOC338758 (expression array) (Refseq XM_931359.2): −0.07166 | LOC644739 fc (Refseq XM_933679.1): −0.07399 | LOC642127 expression fc (Refseq XM_936272.2): 0.04199 | LOC642219 expression fc (Refseq XM_936370.2): 4.39E−05 | LOC285299 expression fc (Refseq XM_936463.2): −0.03458 | fc of BEXL1 (expression array) (Refseq XM_936467.2): −0.1528 | LOC653978 expression fc (Refseq XM_937424.1): 0.1928 | LOC646508 expression fc (Refseq XM_937570.1): −0.04201 | LOC648533 expression fc (Refseq XM_937587.1): 0.03736 | LOC342933 expression fc (Refseq XM_938208.2): −0.1021 | PRAMEF17 expression fc (Refseq XM_938420.2): 0.1008 | fc of LOC649425 (expression array) (Refseq XM_938508.1): 2.539 | LOC649563 expression fc (Refseq XM_938635.2): −0.06114 | LOC650167 expression fc (Refseq XM_939249.1): 0.04811 | LOC654101 expression fc (Refseq XM_939354.1): 0.09479 | MGC61598 expression fc (Refseq XM_939432.1): 0.09581 | LOC651308 expression fc (Refseq XM_940443.1): 0.03906 | ZC3H5 fc (Refseq XM_940903.2): 0.09652 | LOC651816 expression fc (Refseq XM_941060.1): −0.5388 | LOC652080 expression fc (Refseq XM_941404.1): 0.1734 | LOC652349 expression fc (Refseq XM_941777.1): 0.01696 | LOC652433 expression fc (Refseq XM_941875.1): −0.03197 | LOC651390 expression fc (Refseq XM_942401.1): −0.07746 | LOC727846 expression fc (Refseq XM_001126140.1): 0.003662 | LOC730278 fc (Refseq XM_001126471.1): 0.1899 | PARP10 expression fc (Refseq XM_001127571.1, cultured human skeletal muscle): 0.5424 | fc of LOC730996 (expression array) (Refseq XM_001128017.1): 1.049 | LOC342900 expression fc (Refseq XM_001129035.1): 0.1315 | LOC729368 expression fc (Refseq XM_001130065.2): −0.06002 | LOC729458 expression fc (Refseq XM_001130308.2): 0.008126 | LOC729694 expression fc (Refseq XM_001131061.1): −0.1655 | LOC729698 expression fc (Refseq XM_001131072.1): −0.06572 | LOC729700 expression fc (Refseq XM_001131081.1): −0.184 | LOC729706 expression fc (Refseq XM_001131091.1): −0.01626 | LOC729724 expression fc (Refseq XM_001131132.1): 0.1112 | LOC729731 expression fc (Refseq XM_001131140.1): 0.09881 | LOC728450 expression fc (Refseq XM_001131473.2): 0.1347 | RFNG fc (Refseq XM_001132711.1): −0.2183 | LOC732416 expression fc (Refseq XM_001133386.1): 0.05578 | THOC4 expression fc (Refseq XM_001134346.1): −0.1896 | PRAMEF15 expression fc (Refseq XM_001713659.1): −0.05867 | LOC100131392 expression fc (Refseq XM_001713681.1): −0.007104 | LOC100132564 expression fc (Refseq XM_001713808.1): 0.401 | LOC391769 expression fc (Refseq XM_001713901.1): 0.152 | PRAMEF13 expression fc (Refseq XM_001713933.1): 0.1179 | PRAMEF11 expression fc (Refseq XM_001714028.1): 0.1217 | fc of LOC285296 (expression array) (Refseq XM_001714301.1): 0.8246 | LOC100133588 expression fc (Refseq XM_001714755.1): 0.03978 | CTGLF7 expression fc (Refseq XM_001714786.1): −0.2949 | LOC100129630 expression fc (Refseq XM_001714940.1): −0.1038 | LOC391763 expression fc (Refseq XM_001715080.1): 0.09287 | LOC642446 expression fc (Refseq XM_001717781.1): 0.1879 | LOC100133446 expression fc (Refseq XM_001717965.1): 0.1161 | LOC100129165 fc (Refseq XM_001718314.1): 0.2245 | LOC643336 expression fc (Refseq XM_001718563.1): 1.023 | LOC100129053 expression fc (Refseq XM_001718702.1): 0.09951 | LOC100130652 expression fc (Refseq XM_001719052.1): 0.105 | RFPL4A expression fc (Refseq XM_001719234.1): −0.09032 | LOC728809 fc (Refseq XM_001719546.1): 0.02213 | LOC100134199 expression fc (Refseq XM_001719549.1): 0.03252
